Entries after “also recorded” stand apart in the source; their conditions may differ.
How the values were obtained:
[1] = target: T1, transthyretin (TTR) (Homo sapiens, UniProt P02766); experiment: Transthyretin fibrillation ThT assay; assay type: biochemical; conditions: for effect on TTR fibril formation, overall: five αB crystallin peptides and control
T1 construct: purchased Sigma-Aldrich
Protocol: The effect of the five αB crystallin peptides ST, DR, HG, LT, and ER on TTR fibrillation was measured using the ThT fluorescence assay (FIG. 26). The formation and inhibition of TTR fibrils was qualitatively verified by fluorescence and bright-field microscopy. The concentration of the peptides was varied relative to TTR to establish a concentration curve. In addition, the effect of a control neuropeptide (AT1) with no TTR fibril inhibition activity was measured and compared to the effect of the αB crystallin peptides on TTR fibril formation. The ThT fluorescence of 16 μM TTR alone incubated at 37° C. for 4 hrs, increased from ˜15,000 to ˜45,000 RFU. Addition of 3.2 μM αB crystallin peptides, ST, DR, LT, and HG decreased the ThT fluorescence of TTR by 15-70%. In contrast, 3.2 μM ER had no effect on TTR fibril formation. Increasing the concentration of the ER peptide to 16 μM decreased the ThT fluorescence of TTR by 60%. The negative control peptide AT1 had no effect on TTR fibrillation even at a concentration as high as 160 μM. All five αB crystallin peptides inhibited TTR fibrillation at sub-stoichometric and stoichometric concentrations (3.2 μM and 16 μM).
The Thioflavin T (ThT) fluorescence of TTR in the presence of varying concentrations of αB crystallin peptides and controls was measured. […] When the concentration of the peptides was increased to 16 μM (1:1::peptide:TTR), the αB crystallin peptides ST, DR, HG, LT and ER decreased the ThT fluorescence by 8-72%. When the concentration of the peptides was increased further to 80 μM ([…]), all of the five αB crystallin peptides ST, DR, HG, LT, and ER decreased the ThT fluorescence by 40-70%. […] The formation and inhibition of TTR fibrils was verified microscopically.
Transthyretin fibrillation ThT assays were performed as described previously. Hurshman et al., Biochemistry 43:7365-81, 2004; O'Nuallain and Wetzel, Proc Natl Acad Sci USA 99:1485-90, 2002. Peptides were dissolved to 2 mM in 0.25% DMSO and diluted accordingly, while TTR was dissolved in 200 mM KCl, 2 mM EDTA, 5 mM PBS, 200 mM sodium acetate, pH 4.4. For the 5::peptide:TTR assay, 10 μL of 160 μM peptide was mixed with 10 μL of 32 μM TTR, and 1 μL of 1 mM ThT. For the 1:1::peptide:TTR assay, 10 μL of 32 μM peptide was mixed with 10 μL of 32 μM TTR and 1 μL of 1 mM ThT. For the 1:5::peptide:TTR assay, 10 μL of 6.4 μM peptide was mixed with 10 μL of 32 μM TTR and 1 μL of 1 mM ThT. ThT fluorescence was measured using a Perkin Elmer Victor^3 V plate reader. Assays were performed in 384-well fluorescence plates in duplicates or triplicates. Samples were incubated at 37° C. ThT fluorescence was measured continuously for 150 minutes. The effect of the peptides and APS was calculated as percentage fibril formation relative to TTR alone (100%) at the end of 150 minutes.

[2] = target: beta amyloid (Homo sapiens, UniProt P05067); experiment: αB crystallin protein pin array, binding of beta amyloid; conditions: immobilized 8-mer peptide; absorption at 450 nm
Source text: αB Crystallin peptides that bind the target protein beta-amyloid were identified by screening an αB crystallin protein pin array, which provides a systematic method for evaluating interactions between peptides corresponding to residues 1-175 of human αB crystallin and selected target proteins in a parallel and simultaneous manner.
Peptides were synthesized on derivatized polyethylene pins arranged in a microtiter plate format. Each peptide was 8 amino acids in length and consecutive peptides were offset by 2 amino acids. All peptides were covalently bonded to the surface plastic pins. The first immobilized peptide was 1MDIAIHHP8 and the last peptide was 168PAVTAAPK175 for the human αB crystallin.
After synthesis, the pins were pre-coated at room temperature with 2% Bovine Serum Albumin (BSA), 0.1% Tween-20 and 0.1% Sodium azide in 10 mM phosphate buffered saline pH 7.2 (PBS) for 1 hr, and washed three times for 10 mins each with 10 mM PBS. To screen for binding to the peptides, fixed concentrations of the target protein beta amyloid was dissolved in 10 mM PBS, containing 0.05% Tween-20, added to each well and incubated for 1 hr at room temperature. The pin array was washed three times for 10 mins each with 10 mM PBS, containing 0.05% Tween-20. Monoclonal or polyclonal primary antibodies for the target protein beta amyloid was diluted into PBS buffer, added to each well and incubated for 1 hr at room temperature. Subsequently, the pin array was washed three times for 10 mins each with 10 mM PBS containing 0.05% Tween-20. Anti-rabbit horse-radish peroxidase conjugate secondary antibodies was diluted into PBS buffer, added to each well and incubated for 1 hr at room temperature. The pin array was washed three times for 10 mins each with 10 mM PBS containing 0.05% Tween-20. A chromogenic substrate of horse-radish peroxidase 3,3′,5,5′-Tetramethylbenzidine (TMB) (Pharmingen, San Diego, Calif.) which is colorless was added, and the reaction was carried out for 45 min.
The reaction was stopped by adding 6N sulfuric acid, which changes the color from blue to yellow. The absorption at 450 nm was measured by an ELISA reader (BioTek, Winooski, Vt.).
The pin array was regenerated by sonication in a water bath (VWR Aquasonic, West Chester, Pa.) with 100 mM PBS, containing 1% Sodium dodecyl sulfate (SDS) and 0.1% 2-Mercaptoethanol@60° C. for 10 mins. Next, the pin array was rinsed three times in deionized water, preheated to 60° C. for 30 secs each time, and shaken in water preheated at 60° C. for 30 min. The pin array was then washed with methanol at 60° C. for 15 secs and air-dried and stored @−20° C. for future use. Each target protein was assayed 2-5 times against the human αB crystallin protein pin array peptides to verify the reproducibility of the results. Peptides numbered 5, 7, 8, 9, 13, 19, 22, 23, 24, 27, 35, 38, 45, 51, 52, 56, 57, 61, 66, 71, 72, and 79 in Table 2 reproducibly tested positive in the protein pin assay.

| Sequence | effect on TTR fibril formation, overall [1] | binding of beta amyloid in the protein pin assay [2] | also measured |
| --- | --- | --- | --- |
| DRFSVNLDVKHFS | strong inhibition | – | – |
| ERTIPITRE | modestly inhibited | – | decrease in ThT fluorescence of TTR ([1]; 3.2 μM, 16 μM TTR, 37° C.): no effect |
| FSVNLDVK [Peptide 38] | – | positive | – |
| HGKHEERQDE | – | – | effect on TTR fibril formation, overall ([1]; listed as HG): most effective inhibitor; also recorded: strong inhibition |
| LTITSSLS [Peptide 66] | – | positive | – |
| LTITSSLSSDGV | partially inhibited | – | – |
| STSLSPFYLRPPSFLRAP | partially inhibited | – | – |
| WIRRPFFP [Peptide 5] | – | positive | – |

Source: patent publication US20070185028A1, “Compositions and methods for treatment of protein misfolding and protein aggregation diseases” (priority 2004, published 2007)
